{"source": "the DeepSol protein solubility set", "data": [{"test": "soluble on expression in E. coli; label from the status in PepcDB or PDB records", "values": [{"sequence": "MSDKVQTMASAIYRELETMIKVHGEDGVKTLMPLVVNVLEALDLAYLERDEQTAELEMLKEDNEQLQTQYEREKALRKQTEQKYIEIEDTLIGQNKELDKKIESLESIMRMLELKAKNATDHASRLEEREVEQKLEFDRLHERYNTLLRTHVDHMERTKYLMGSEKFELMQNMPLPNMQLRNKMGMAASVDASSIRGVSDLISAHMTQSTTMDVNLANHITNEDWQDEFSSDIEPSPRDIPQSSADALTSPITTKEPTPKREAASPKQSEEEEADETTSVDPKENNDLLGADLTGNLVDPAEFASAVNDTFIGMGREVENLIKENSELLDMKNALNIVKNDLINQVDELNSENMILRDENLSRQMVSEKMQEQITKHEEEIKTLKQKLMEKENEQEEDDVPMAMRKRFTRSEMQRVLMDRNAYKEKLMELEESIKWTEMQRAKKMQQQQQNVNQKKSGGIWEFFSSLLGDSVTPPASSRGNRASSSRGKMTRSVEYIDPDMISERRAAERREQYKLVREHVKKEDGRIEAYGWSLPNVEAEVSSVPIPVCCRPLLDNEPSLKIWCATGVVLRGGRDERGQWIVGDPIYFAPASMKKTKTSNHRPELEDEIKRARNLDARESELDEWQSSSLVWVVSSNQGKSLIAVLDANNPNNIIETFPACDSHLLCIQAVSGVMEGEPEMNEEQSKKYLSGGGKIKDLPEGLDGTDLGACEWVELRKMEDSEDGVPTYCSNDMKPSPKRTRDFSISEVAPVDSSAPVKEDPLPPPANRPGGRAALPPHIRDAMSKYDGVSGQMSGALPTVWMGGQNQYIYIHSAVTAWKQCLRRIKMPDAVLSIVHYKSRIFAALANGTIAIFHRNKHGEWSDEGYHSLRVGSATSSVRSLCLVSTNIWATYKNCVVVLDAESLQIVKVFAAHPRKDSQVRNMQWVGAGVWLSIRLDSTLRLYHAHTYEHLQDVDIEPYVTKMLGTSKLDFSYMRTTALLVSNRRLWIGTGTGVIISVPFSGQLEKKIETKDSKRPAGPGGLVRVYGATSENATNDEKTNDDFIPYCNLAHAQLSFHGHKDSVKFFLGVPGASKNGEDESAEVTLRRMLIMSGGDGYIDFRIGEENEPELTGQSIRPRDMSHLIIWEVDAELPILSK", "soluble on expression in E. coli": "not soluble"}, {"sequence": "MGSDKIHHHHHHMDTAGMISAVQEILANRSLDGWEITAASSHILSIEVKEQKVDTFKCSAPLGVSVRVLKNGGMGFSFSTSMAPEDLARMVDNALVGAESQTPDADHGFPDPPAVYPDVPGLFDDGLAAVAEEAKIAVALDLERLTLAADPRVRKVRKATYGDSMVETMVVNSRGVSCRYRGTSVSASVTAVAEENGQSQMGWDFDFSSRFDGISVERIVAGAVAKATGLLGAATVPTMRCPAVLDTYVATEILEVLAPAFLAESVQKGKSLLAGKRGEMIVAPLLTIRDDGTLPGGMGTAPFDAEGVPKRNTVLVQNGRLDSYLYDTLRARKEGVAPTGNAIRSGIKSPPHMGVSNLFIENGTEAPEALLAGITRGVLLTEVMGMHTANTISGDFSVGAAGFLVEDGRVTRPVKGIAIAGNILELFRGVEAVGNDLRFYGTVGSPSLRIAALDVSGE", "soluble on expression in E. coli": "not soluble"}, {"sequence": "MSTKLTGYVWDGCAASGMKLSSVAIMARLADFSNDEGVCWPSIETIARQIGAGMSTVRTAIARLEAEGWLTRKARRQGNRNASNVYQLNVAKLQAAAFSQLSDSDPSKSDASKSDPSKFDASKSGKKAGFHPSESGGDPSVKSKHDPSDKKPSRPDSSQPDTQTAEQDFLTRHPDAVVFSPKKRQWGTQDDLTCAQWLWKKIIALYEQAAECDGEVVRPKEPNWTAWANEIRLMCVQDGRTHKQICEMYSRVSRDPFWCRNVLSPSKLREKWDELSLRLSPSVSTYTEKREDPYFKASYDNVDYSQIPAGFRG", "soluble on expression in E. coli": "not soluble"}, {"sequence": "GMTTQTATDFMEIVKGRRSIRNYDTNVKISKEEMTQILEEATLAPSSVNMQPWRFLVIDSEEGKATLAPLAKFNQVQVETSSAVIAVFGDMKAIDQLENIYDTAVEKGLMPQEVRDRQVPAIQGMYENVPASALKDSILIDSGLVSMQLMLVARAHGYDTNPIGGYEKDQIAEAFGMEKDRYVPVMLLSIGKAVDAGYPSVRLPINDIADWK", "soluble on expression in E. coli": "soluble"}, {"sequence": "MGHHHHHHSHMGKWHVGGRRGSPRQWGATARGRDLEAVRRGGCGSVGRRRQRRRRRRRRMRRMRRMWATQGLAVRVALSVLPGSRALRPGDCEVCISYLGRFYQDLKDRDVTFSPATIENELIKFCREARGKENRLCYYIGATDDAATKIINEVSKPLAHHIPVEKICEKLKKKDSQICELKYDKQIDLSTVDLKKLRVKELKKILDDWGETCKGCAEKSDYIRKINELMPKYAPKAASAPTDL", "soluble on expression in E. coli": "not soluble"}, {"sequence": "GPGSMSFSHFVPPISRRRMFFEDQLDEALSREGSPRLSTSNTVGGADLVAAGAANDETFPFPSHAAPGHLLKSLIQATENERCAPDILPYPEAIVDSVVAQIVAQNEQIRLLGTDERQKAAGSDSGVSLLPFKPSDIMALEVQRAQFFLCELLRCRLRKIEALALTINYESQSGAEAHTQLREHLSHNEIVVADRLAELISKCVRQAGLQSAPSELQQLVPNAPYAEGNEVLPIPDIDHYVFCVVLDDLGVVRLGDDAEQTVHAGEVFIVPYRTFRPYILEGRVRLV", "soluble on expression in E. coli": "not soluble"}, {"sequence": "MEVDKKDEREAESSEQVVNPWEVSAKDGGKIDYDKLIDKFGCQRLDESLIDRVQRLTSRQPHVFLRRSVFFAHRDFNEILDAYERGDKFYLYTGRGPSSEALHLGHLIPFMFTKYLQEAFKVPLVIQLTDDEKSIWKNLSVEESQRLARENAKDIIACGFDVTKTFIFSDFDYVGGAFYKNMVKVGKCVTLNKAMGIFGFSGEDPIAKLSFPPVQAVPSFPSSFPHLFPGKDNLRCLIPCAIDQDPYFRMTRDVAPRLGYSKPALIESTFFPALQGENGKMSASDPNSAIYVTDSAKDIKNKINRYAFSGGQDSIEKHRELGANLEVDIPVKYLSFFLEDDSELEHIKKEYGEGRMLTGEVKKRLTEVLTEIVERHRRARAAVTDEMVDAFMAVRPLPSMFE", "soluble on expression in E. coli": "soluble"}, {"sequence": "MGSDKIHHHHHHMKTRIVQKQFKRKETKYIVDKKTFELLEKELRQYMMADEFATSTITNIYFDNEDFDMIQDSLAKKNGREKIRMRVYDAIPSESSQAFLEIKKKENKIGYKYRLTSNPVSVANYIENGVIDSTIKDDKVNSELEMLRERYGTIKPKMYIYYDRVSYKGIEDKKVRLTIDKNLLYRDYDVDAMEGKFGKNLLDPTKVIMEVKVPEERPDWLVALLEKYQIEKQSFSKYGNAYKLAHNITGEEVSQHAVV", "soluble on expression in E. coli": "not soluble"}, {"sequence": "MSNQLSPKPPVNPIVMGKIGSAYGIRGWLRVFSSTEDADSIFDYQPWFIQSKSGWQLVEIEGWKYHNQDLIIKVKGADDRDAANLLTNCEIVVDSSQLPDLGVGDYYWKDLIGCQVVTVTGYELGKIIDMMETGSNDVMVIKANLKDAFGVKERLVPFLTEQVVKRVDLSAQTIEVDWDPGFLEHHHHHH", "soluble on expression in E. coli": "soluble"}, {"sequence": "MAAISFLGDLIQTISDRGRDLIGLARSDLARTASAADLARFCEDLISRRGEASGVALARLILDRYAAFPLEDRLAFLELIATEFGADHDAVDAAIAAYRADPTRARLGLLHVAAEPRSQELIRRLNLARGGTLALVRMREDLFTLRKRLKDREAAPETIDATVSLDSDFEHLFASWFNRGFLVLRPIDWSTPADILEKIIRYEAVHEIADWDELRRRIQPTDRRCFAFFHPALLDEPLIFVEVALTNAIAPAIQPILADGREPVPARSATTAIFYSISNCQKGLAGVTFGNFLIKQVVEDLAREIPSLKTFVTLSPVPGFRTWLDRERGAGAPQGLTREDVEALRLLDTEDWRSDKTKCEAVRRAMLPAAAAYFLRAKNEKGRPLDPVARFHLGNGARLERMNFLGDTSKKGLKQSYGLMVNYLYDLSAIEKNHETYVNLGTVATSSAVSRELRSNLPPPRAVVLAEAGLEHHHHHH", "soluble on expression in E. coli": "not soluble"}, {"sequence": "MGSDKIHHHHHHDETDPILTQKNWDGTATYFQSSDEHGFSMYYKPQVGFVGDPMPFYDPVAKDFKVMYLQDYRPNPEATYHPIFGVATKDGATYESLGELISCGGRDEQDAAIGTGGTIYNPADKLYYTFYTGNKFKPSSDQNAQVVMVATSPDFKTWTKNRTFYLKGDTYGYDKNDFRDPFLFQTEDGVYHMLIATRKNGKGHIAEFTSADLKEWESAGTFMTMMWDRFYECPDVFKMGDWWYLIYSEQASFMRKVQYFKGRTLEDLKATTANDAGIWPDNREGMLDSRAFYAGKTASDGTNRYIWGWCPTRAGNDNGNVGDVEPEWAGNLVAQRLIQHEDGTLTLGVPDAIDRKYTSAQEVKVMAKDGNMIESGKTYTLGEGASVIFNRLKVHNKISFTVKTASNTDRFGISFVRGTDSASWYSIHVNADEGKANFEKDGDDAKYLFDNKFNIPADNEYRVTIYSDQSVCVTYINDQLSFTNRIYQMQKNPWSLCCYKGEITVSDVQVSTY", "soluble on expression in E. coli": "not soluble"}, {"sequence": "MGSDKIHHHHHHMKYEKIAFFRFFGRLNDFFRNSERIKTHRFTGFQTVKDRIEALGVPHVEVSLITLNGKPVGFDHMVEDGELFFVYPEFQNIEIPEDWLVTPRYIGEPRFVLDIHLGKLARLLRMLGFEAVFGEESDEKLCWMAVKKKAILLSRDTGLLKRKELVFGYYVRNTDPKEQLVEVVERYDLKKWMKPFTRCIECGVELEEVPKEAVKNRVPPKVYGFFNEFARCPVCGRIYWKGSHYDHMVEFIKSNINKG", "soluble on expression in E. coli": "not soluble"}, {"sequence": "MGKGAMNRRDFLKVGGMSTLALTLGSTGLFSLEGQAKNSSNPTSGFGGFGPLVKDPNGILDLPKGFKYKILSRTGDRMTNGDLVPSMHDGMAAFQGPRNTTILVRNHENGTNADYPVNGKNPWSKGAAGGTTALVVGPNREVIREYVTNSGNIRNCAGGPSTWGTWLTCEETRDMGHGFVFEVNPHEPENEMSKTPIRDMGYFSHEACNVDPSTGIWYLTEDNSPSFFYRFTPHDRSQTLGSLQKGGILEAAAIDELPHNQASNFTSGQKIGIVWKKVNPERAKEDARDLGCIRFSRLEGSWFAGGAFWFDDTNAGEKNLGRIYRYFPATNTLELFYESSDHNDLEMPDNITITPWGDLWIAEDGNIGRDRMIGLTPEGNVYTFAENRLNNSEFAGPAFSPDGKTFYLNMQTPGITFAIWGPFARRNAARQVAMSHAAPPPGYGPQVSDKLADYAERHGMSPLAAAALERHGFIVLEHHHHHH", "soluble on expression in E. coli": "not soluble"}, {"sequence": "MGSDKIHHHHHHMMIKDLKAHYQLLYAQSGDSPAAVQYPTHDSQVVRFSILSHGIDKTCNIIDLGCGLADMLPYLRQNGFTGKYLGCDFVPEFIELAKGKYGEDLNAKFMEFNILQDEIPTGYDYVLISGIFNNKIKNNQEFIELALKESMAKVNIGVVFNALSDYVQYQDETLFYISPLSLFDYCKRNITPYVTLKHDYLTKPGGFPYEFTMSLRHKEAS", "soluble on expression in E. coli": "not soluble"}, {"sequence": "MNVDLHCHSTASDGALSPTALVARAHEYGVRVLSLTDHDTLEGLEEARTAAHSLGMQLVNGVELSCTWGGATIHVLGYGFDTQAPALTEAIARLHEGRWLRAEEISRKLAIKGMPGALEGARAIQQALGDSGNAPARPHFADFMVRAGFVKDRAEAFRKWLGAGKLGDVKQHWPTLEDTVATLRASGAWVSLAHPSHYDFTRSKRRKLVGDFVQAGGHAIEVVNGMQPADQVGTLAILAREFGLLVSAGSDFHGPGNWGEIGTYRPVPEDLPPLWCRF", "soluble on expression in E. coli": "soluble"}, {"sequence": "MGSDKIHHHHHHMDEVLSFKRGRVPLLISMPHPGTRLTPAVDAGLVEEARALTDTDWHIPRLYDFAEELGASTLAAHYSRYVVDLNRPSDDKPLYSTATTGLYPDTLFDGRPLYREGMAPSAEERMRYLAEVWTPYHRTIAEELARLKAEFGYALLWDAHSIRSHVPHLFDGRLPDFNLGTNAGASCDPALAARLEAVCAAAEGYSHVLNGRFKGGHITRHYGQPEQHVHAVQLELAQCTYMDEQAPFAYRADLAEATRAVIRELLESLLAWGRERYA", "soluble on expression in E. coli": "not soluble"}, {"sequence": "SLETYGDSLATAVAERWNNHQAFIFGLATGAVVRLIAPLLQSKQSDPAVLVVDAMGQSVISLLSGHQGGGDRLAQIVAEQLQAKAILTGGANGLGQIAVDCLGIPFGWRKGKGDWTAVSSALAAQKLVGVTQTAGLTLWQNHLPPGHGFTFSGTKETTATLLITVQESNLEKLNKPMAPWHPRLLWIGVGCVRGTDLALLERALLEVLERENLSPLAIAGLASVHLKADEVGMQQFAQKYDLPFFTFPPEQLAAQAVPNPSEVVLQEVGTPSVAEAAALTAAQMYSQGGKLIAEKVIVKQHNQAVTVAIAKGE", "soluble on expression in E. coli": "not soluble"}]}]}
